In patent publication US20260085105A1 (Amgen, published 2026):
Each block holds one binder with its values, some of them ahead of it.

Columns and labels:
[1] = biological target: T1, HERC4 peptide on HLA-A*02:01 (human); experiment: killing
T1 peptide: KVLEILHRV

[2] = biological target: T2, PSME2 peptide on HLA-A*02:01 (human); experiment: killing
T2 peptide: KVLERVNAV

[3] = biological target: T3, TP2 peptide on HLA-A*02:01 (human); experiment: killing
T3 peptide: KILEDVVGV

[4] = biological target: T4, HTR5A peptide on HLA-A*02:01 (human); experiment: killing
T4 peptide: KVLETLVTV

[5] = biological target: T5, RG1L peptide on HLA-A*02:01 (human); experiment: killing
T5 peptide: FLLETVVRV

[6] = biological target: T6, CNOT1 peptide on HLA-A*02:01 (human); experiment: killing
T6 peptide: KVLGIVVGV

[7] = biological target: T7, ATAD2 peptide on HLA-A*02:01 (human); experiment: killing
T7 peptide: KILEALQRV

[8] = biological target: T8, GPC5 peptide on HLA-A*02:01 (human); experiment: killing
T8 peptide: KLLEQVNRI

[9] = biological target: T9, MIA3 peptide on HLA-A*02:01 (human); experiment: killing
T9 peptide: KVLDKVFRA

[10] = biological target: T10, SYNE3 peptide on HLA-A*02:01 (human); experiment: killing
T10 peptide: KLLDLQVRV

[11] = biological target: T11, ANO5 peptide on HLA-A*02:01 (human); experiment: killing
T11 peptide: IVMEHVVFL

[12] = biological target: T12, AXIN1 peptide on HLA-A*02:01 (human); experiment: killing
T12 peptide: ILDEHVQRV

[13] = biological target: T13, GRP78 peptide on HLA-A*02:01 (human); experiment: killing
T13 peptide: KVTHAVVTV

[14] = biological target: T14, PTRF peptide on HLA-A*02:01 (human); experiment: killing
T14 peptide: KLLEKVRKV

[15] = biological target: T15, TRMT1L peptide on HLA-A*02:01 (human); experiment: killing
T15 peptide: VALEHFVLV

[16] = biological target: T16, KIAA1033 peptide on HLA-A*02:01 (human); experiment: killing
T16 peptide: KVLNKVITV

[17] = biological target: T17, NSD1 peptide on HLA-A*02:01 (human); experiment: killing
T17 peptide: KVQEQVHKV

[18] = biological target: T18, HNRNPR peptide on HLA-A*02:01 (human); experiment: killing
T18 peptide: KVWGNVVTV

[19] = biological target: T19, TSC1 peptide on HLA-A*02:01 (human); experiment: killing
T19 peptide: SLLGHVIRL

[20] = biological target: T20, MADD peptide on HLA-A*02:01 (human); experiment: killing
T20 peptide: ILLEHKVVL

[21] = biological target: T21, MAGE-A4 (100% identical in MAGEA8) peptide on HLA-A*02:01 (human); experiment: multimer staining
T21 peptide: KVLEHVVRV

binding result [21]: recognises
B1: TCR6 of Tables 1A and 1B (TCR7 of the examples) (TCR, V domains shown)
Valpha: AQTVTQSQPEMSVQEAETVTLSCTYDTSENNYYLFWYKQPPSRQMILVIRQEAYKQQNATENRFSVNFQKAAKSFSLKISDSQLGDTAMYFCAFVDSGYALNFGKGTSLLVTP
Vbeta: DVKVTQSSRYLVKRTGEKVFLECVQDMDHENMFWYRQDPGLGLRLIYFSYDVKMKEKGDIPEGYSVSREKKERFSLILESASTNQTSMYLCASSLDGARTQYFGPGTRLTVL
binding result [1]: no recognition
binding result [2]: no recognition
binding result [3]: no recognition
binding result [4]: no recognition
binding result [5]: no recognition
binding result [6]: no recognition
binding result [7]: no recognition
binding result [8]: no recognition
binding result [9]: no recognition
binding result [10]: no recognition
binding result [11]: no recognition
binding result [12]: no recognition
binding result [13]: no recognition
binding result [14]: no recognition
binding result [15]: no recognition
binding result [16]: no recognition
binding result [17]: no recognition
binding result [18]: no recognition
binding result [19]: no recognition
binding result [20]: no recognition

binding result [21]: recognises
B2: TCR4 (TCR10) (TCR, V domains shown)
Valpha: LAKTTQPISMDSYEGQEVNITCSHNNIATNDYITWYQQFPSQGPRFIIQGYKTKVTNEVASLFIPADRKSSTLSLPRVSLSDTAVYYCLVGGDEDMRFGAGTRLTVKP
Vbeta: EAGVAQSPRYKIIEKRQSVAFWCNPISGHATLYWYQQILGQGPKLLIQFQNNGVVDDSQLPKDRFSAERLKGVDSTLKIQPAKLEDSAVYLCASSLEYGPTYEQYFGPGTRLTVT
binding result [1]: no recognition
binding result [2]: no recognition
binding result [3]: no recognition
binding result [4]: no recognition
binding result [5]: no recognition
binding result [6]: no recognition
binding result [7]: no recognition
binding result [8]: no recognition
binding result [9]: no recognition
binding result [10]: no recognition
binding result [11]: no recognition
binding result [12]: no recognition
binding result [13]: no recognition
binding result [14]: no recognition
binding result [15]: no recognition
binding result [16]: no recognition
binding result [17]: no recognition
binding result [18]: no recognition
binding result [19]: no recognition
binding result [20]: no recognition
